Bridges are numbered along the chain shown (N, C = ends).
Molecular target: T1, human glucagon receptor (human, UniProt P47871 26-477)
T1 construct: whole, on cells; The assay used plasma membranes from stably transfected BHK-21 cells; also called cloned human glucagon receptor
Test: competition radioligand binding; displacement of 125I-glucagon from BHK-21 membranes with the human glucagon receptor; filtration
Procedure: Binding of peptides to the glucagon receptor was assayed in a competition binding-assay using a membrane fraction containing the cloned human glucagon receptor and radiolabeled glucagon.
For measuring competition with glucagon binding, 20 μg of the membrane suspension were incubated for 60 minutes in covered microtiter plates (Optiplate, Packard Instruments) with 50.000 cpm 125I-glucagon (Amersham Pharmacia), and one concentration of the test compound in a total volume of 100 μl. The protein-bound radioactivity is separated from unbound ligand by filtration and washing on a Multiscreen-Vakuumfiltrationsystem (Millipore) using GC/B filters (Packard) and measured after addition of 20 μl Microscint 20 in a topcount scintillation counter (Packard). The non-specific binding is defined as radioactivity bound in the presence of 1 μM glucagon (Wherl GmbH).

T1 sequence (P47871 26-477): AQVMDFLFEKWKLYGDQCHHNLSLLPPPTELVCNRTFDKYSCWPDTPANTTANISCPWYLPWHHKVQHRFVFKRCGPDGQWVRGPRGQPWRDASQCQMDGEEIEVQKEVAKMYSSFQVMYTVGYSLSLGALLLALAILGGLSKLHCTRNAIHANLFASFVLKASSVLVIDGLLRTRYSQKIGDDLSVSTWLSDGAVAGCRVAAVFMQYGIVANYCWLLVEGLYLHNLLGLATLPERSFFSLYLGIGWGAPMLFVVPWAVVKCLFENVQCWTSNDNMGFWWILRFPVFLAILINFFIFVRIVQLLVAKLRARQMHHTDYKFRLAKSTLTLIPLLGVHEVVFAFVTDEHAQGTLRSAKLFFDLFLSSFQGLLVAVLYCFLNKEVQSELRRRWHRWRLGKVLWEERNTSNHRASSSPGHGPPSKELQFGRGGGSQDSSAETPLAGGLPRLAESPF

B1: methyl ester of the bicyclic nonadecapeptide of Example 1 (peptide)
peptide: GLPWGCPSDIPGWNTPWAC-OMe
modifications: disulfide 6-19; lactam N-9
SMILES: CC[C@H](C)[C@@H]1NC(=O)[C@@H]2CC(=O)NCC(=O)N[C@@H](CC(C)C)C(=O)N3CCC[C@H]3C(=O)N[C@@H](Cc3c[nH]c4ccccc34)C(=O)NCC(=O)N[C@@H](CSSC[C@@H](C(=O)OC)NC(=O)[C@H](C)NC(=O)[C@H](Cc3c[nH]c4ccccc34)NC(=O)[C@@H]3CCCN3C(=O)[C@H]([C@@H](C)O)NC(=O)[C@H](CC(N)=O)NC(=O)[C@H](Cc3c[nH]c4ccccc34)NC(=O)CNC(=O)[C@@H]3CCCN3C1=O)C(=O)N1CCC[C@H]1C(=O)N[C@@H](CO)C(=O)N2
Work on B1 yielded an IC50 of 135 nM.

B2: bicyclic nonadecapeptide of Example 1 (SEQ ID NO. 5), free acid (R = H) (peptide)
peptide: GLPWGCPSDIPGWNTPWAC-OH
modifications: disulfide 6-19; lactam N-9
SMILES: CC[C@H](C)[C@@H]1NC(=O)[C@@H]2CC(=O)NCC(=O)N[C@@H](CC(C)C)C(=O)N3CCC[C@H]3C(=O)N[C@@H](Cc3c[nH]c4ccccc34)C(=O)NCC(=O)N[C@@H](CSSC[C@@H](C(=O)O)NC(=O)[C@H](C)NC(=O)[C@H](Cc3c[nH]c4ccccc34)NC(=O)[C@@H]3CCCN3C(=O)[C@H]([C@@H](C)O)NC(=O)[C@H](CC(N)=O)NC(=O)[C@H](Cc3c[nH]c4ccccc34)NC(=O)CNC(=O)[C@@H]3CCCN3C1=O)C(=O)N1CCC[C@H]1C(=O)N[C@@H](CO)C(=O)N2
Work on B2 yielded an IC50 of 100 nM.
